Results on three substances are retold here after paper PMC2481281.

In test [1] the target is CXCL12γ protein, chemically synthesized (γ-wt) (mouse). Kind of test: SDS-PAGE and immunoblot; chemically synthesized chemokines separated by SDS-PAGE and probed with the K15C mAb; dimeric forms seen. For orientation: A western blot detects proteins with antibodies after separation by electrophoresis.
The target in test [2] is CXCR7 on CXCR7-transduced A0.01 cells (UniProt P25106). Kind of test: flow cytometry on cells; competition: 1 nM α-biot on CXCR7-transduced A0.01 cells with increasing concentrations of untagged chemokine, washed, labelled with 1 µg/ml streptavidin-PE; normalised to binding without competitor; one-site non-linear regression. Background: In flow cytometry, cells or beads pass a laser one at a time.
UniProt P25106, sequence (P25106 whole entry): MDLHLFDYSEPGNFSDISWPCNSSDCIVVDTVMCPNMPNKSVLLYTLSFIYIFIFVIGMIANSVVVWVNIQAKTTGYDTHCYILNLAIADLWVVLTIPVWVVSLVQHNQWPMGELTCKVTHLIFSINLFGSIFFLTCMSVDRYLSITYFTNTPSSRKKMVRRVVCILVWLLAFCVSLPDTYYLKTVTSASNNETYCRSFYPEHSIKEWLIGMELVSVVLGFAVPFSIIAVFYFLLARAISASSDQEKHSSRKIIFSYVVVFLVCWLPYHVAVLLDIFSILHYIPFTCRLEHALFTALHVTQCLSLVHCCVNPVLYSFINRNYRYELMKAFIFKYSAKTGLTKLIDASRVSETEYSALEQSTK

The target of test [3] is α-wt C9 (CXCL12α with C-terminal bovine rhodopsin C9 tag) (mouse) (UniProt P40224). Kind of test: SDS-PAGE and immunoblot; lysates of SFV-infected BHK cells separated by SDS-PAGE and probed with the K15C mAb; dimeric forms seen.
Test [4] concerns the target γ-wt C9 (CXCL12γ with C-terminal bovine rhodopsin C9 tag) (mouse). The description is as above.

In the case of “CXCL12γ protein, chemically synthesized (γ-wt) (ligand)”, in test [1], the stoichiometry N stood at 2. Further, the 50% inhibitory concentration (IC50) in test [2] turned out to be 10.4 nM.

The substance “α-wt C9 (CXCL12α with C-terminal bovine rhodopsin C9 tag) (from UniProt P40224-2 22-93) (ligand)” came in with a stoichiometry N in test [3] of 2.

“γ-wt C9 (CXCL12γ with C-terminal bovine rhodopsin C9 tag) (ligand)” gave a stoichiometry N in test [4] of 2.

The stoichiometry N is the number of molecules, sites or subunits per partner or assembly. A word on the IC50: it is the midpoint of a concentration-inhibition curve.
